According to patent US8716237B2, “Methods for the treatment or prevention of hemorrhagic conditions” (University of Rochester, priority 2007, dated 2014):

What was measured:
Cyld−/− mice = test: Survival of Cyld−/− mice inoculated with S. pneumoniae after pretreatment; assay type: in vivo, mouse; conditions: wedelolactone 10 mg/kg intraperitoneally 2 hours before S.p. inoculation
Method: (§1) For S. pneumoniae-induced lethal infections in wild type, Cyld^−/−, Mkk3^−/−, and PAI-1^−/− mice, anaesthetized mice were intratracheally inoculated with live S. pneumoniae, S. pneumoniae wild type or pneumolysin mutant lysate, or pneumolysin (“PLY”), at a concentration of 5×10^7CFU per mouse for live bacteria and bacterial lysate and 200 ng/mouse for PLY in all experiments unless otherwise indicated, and saline was inoculated as control. The mice were monitored for lethality every 2 hours for the first 12 hours and every 12 hours for 5 days thereafter. To assess the effect of perturbing p38 MAPK signaling on S. pneumoniae-induced lethality in Cyld^−/− mice, Cyld^−/− mice were pretreated with the p38 inhibitor SB203580 (10 mg/kg, intraperitoneally in Cyld^−/− mice) 2 hours before S. pneumoniae inoculation, and mice were then intratracheally inoculated with S. pneumoniae. To determine the effect of administration of exogenous PAI-1 on S. pneumoniae-induced lethality, mice were intratracheally administered with mouse rPAI-1 (12.5 μg/mouse) or saline as control, followed by S. pneumoniae and PLY inoculation 1 day after PAI-1 administration. For PAI-1 neutralization in Cyld^−/− mice, Cyld^−/− mice were intraperitoneally injected with α-PAI-1 mAb (25 μg/mouse for histological analysis and 50 μg/mouse for lethality) 2 hours before S. pneumoniae inoculation. Mouse IgG was used as control. […] Lung tissues were then subjected to histological analysis and total mRNA and protein extraction. In all Examples, saline was used as a control unless otherwise specified.
To assess the effect of perturbing NF-κB signaling on S.p.-induced lethality in Cyld^−/− mice, Cyld^−/− mice were pretreated with the IKK inhibitor Wedelolactone (10 mg/kg, intraperitoneally) 2 hours before S.p. inoculation, and mice were then intratracheally inoculated with S.p.
(§2) Differences in survival between wild-type, Cyld-deficient (“Cyld^−/−”), Mkk3-deficient (“Mkk3^−/−”), and PAI/−/−deficient (“PAI-1^−/−”) mice after saline, S. pneumoniae, S. pneumoniae lysate, and/or pneumolysin inoculation with or without SB203580, rPAI-1, or α-PAI-1 mAb were determined by Kaplan-Meier analysis. All tests were performed using SPSS14.0 software (SPSS Inc.). All in vivo survival rate data were evaluated by Log Lank test. All other in vivo and in vitro data were evaluated by Student t-test. Statistical significance was accepted at a value of p<0.05.

CYLD = CYLD expression up-regulation by bacterial agonists for TLR2
wild type mice [1] = test: Pathological and histological analysis of lungs (alveolar hemorrhage) of wild type mice; assay type: in vivo, mouse; conditions: wild type mice inoculated with rPAI-1
Method: For S. pneumoniae-induced lethal infections in wild type, Cyld^−/−, Mkk3^−/−, and PAI-1^−/− mice, anaesthetized mice were intratracheally inoculated with live S. pneumoniae, S. pneumoniae wild type or pneumolysin mutant lysate, or pneumolysin (“PLY”), at a concentration of 5×10^7CFU per mouse for live bacteria and bacterial lysate and 200 ng/mouse for PLY in all experiments unless otherwise indicated, and saline was inoculated as control. The mice were monitored for lethality every 2 hours for the first 12 hours and every 12 hours for 5 days thereafter. To assess the effect of perturbing p38 MAPK signaling on S. pneumoniae-induced lethality in Cyld^−/− mice, Cyld^−/− mice were pretreated with the p38 inhibitor SB203580 (10 mg/kg, intraperitoneally in Cyld^−/− mice) 2 hours before S. pneumoniae inoculation, and mice were then intratracheally inoculated with S. pneumoniae. […]
For histological analysis, dissected lungs were fixed with 10% buffered neutral formalin overnight with rocking followed by routine processing, embedded in paraffin, and sectioned at about 4 μm thickness. […] H&E-stained lung tissue slides were evaluated by light microscopy using Axiovert 40 CFL (Carl Zeiss), and images were recorded with an AxioCam MRC (Carl Zeiss).

Tlr4−/− mice = test: Survival of Tlr4-deficient mice after pneumolysin inoculation with or without rPAI-1 pre-administration; assay type: in vivo; conditions: intratracheal PLY with mouse rPAI-1 pre-administration
Method: as §2
To further determine whether exogenous rPAI-1 also reduces mortality rate in Tlr4^−/− mice, Tlr4^−/− mice were intratracheally inoculated with PLY with or without mouse rPAI-1 pre-administration, and viability was assessed.

wild type mice [2] = test: Survival of wild type mice inoculated with S. pneumoniae D39 lysate or PLY after rPAI-1 pre-administration; assay type: in vivo, mouse; conditions: for mortality rate / lethality in mice inoculated with S. pneumoniae: rPAI-1 12.5 μg/mouse intratracheally 1 day before S. pneumoniae D39 lysate
Method: as §1
Differences in survival between wild-type, Cyld-deficient (“Cyld^−/−”), Mkk3-deficient (“Mkk3^−/−”), and PAI/−/−deficient (“PAI-1^−/−”) mice after saline, S. pneumoniae, S. pneumoniae lysate, and/or pneumolysin inoculation with or without SB203580, rPAI-1, or α-PAI-1 mAb were determined by Kaplan-Meier analysis. All tests were performed using SPSS14.0 software (SPSS Inc.). All in vivo survival rate data were evaluated by Log Lank test. All other in vivo and in vitro data were evaluated by Student t-test. […]

[3] = mouse, in vivo, 0.6 mg/kg
Method: The efficacy of intratracheal administration of rPAI-1 was evaluated by assessing the presence and function of recombinant PAI-1 in mice. It was first determined whether exogenous PAI-1 is evenly distributed in the lungs of mice after intratracheal inoculation of recombinant stable PAI-1. Recombinant stable wild-type PAI-1 was first labeled with fluorescent dyes using an Alexa Flour 488 protein-labeling kit (Molecular Probes, Eugene, Oreg.) (Herbein & Wright, “Enhanced Clearance of Surfactant Protein D During LPS-induced Acute Inflammation in Rat Lung,” Am. J. Physiol. Lung Cell. Mol. Physiol. 281:L268-L277 (2001), which is hereby incorporated by reference in its entirety). Alexa dyes were selected because their magnitude of fluorescence is constant from pH 4 to 10 and they have a low level of photobleaching compared with similar fluorescent dyes used for protein labeling. […]
To determine whether the exogenously inoculated rPAI-1 is also functional, the in vivo functional activity of intratracheally inoculated rPAI-1 was measured in lungs of mice using ELISA kits from Molecular Innovations. […]

TRAF7, Q6Q0C0 = molecular target: T1, TRAF7, Q6Q0C0
T1 chain: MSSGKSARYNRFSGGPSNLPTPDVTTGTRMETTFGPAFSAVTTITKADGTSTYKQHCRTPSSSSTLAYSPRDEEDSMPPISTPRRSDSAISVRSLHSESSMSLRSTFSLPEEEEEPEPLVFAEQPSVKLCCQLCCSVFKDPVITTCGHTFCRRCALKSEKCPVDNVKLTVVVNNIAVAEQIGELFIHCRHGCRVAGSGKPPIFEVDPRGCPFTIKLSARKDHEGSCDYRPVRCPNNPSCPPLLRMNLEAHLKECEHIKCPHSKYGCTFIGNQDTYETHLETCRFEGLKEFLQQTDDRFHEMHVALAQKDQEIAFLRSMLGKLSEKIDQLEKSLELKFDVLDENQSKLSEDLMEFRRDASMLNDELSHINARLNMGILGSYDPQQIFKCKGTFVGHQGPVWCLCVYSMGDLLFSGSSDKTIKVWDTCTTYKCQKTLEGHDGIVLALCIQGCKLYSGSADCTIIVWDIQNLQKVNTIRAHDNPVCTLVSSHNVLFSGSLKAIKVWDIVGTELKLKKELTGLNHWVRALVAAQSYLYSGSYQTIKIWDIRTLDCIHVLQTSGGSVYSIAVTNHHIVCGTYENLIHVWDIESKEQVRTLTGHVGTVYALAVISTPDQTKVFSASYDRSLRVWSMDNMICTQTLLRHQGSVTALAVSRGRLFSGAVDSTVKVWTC

[4] = molecular target: T2, tumor necrosis factor receptor-associated factor 6, Q9Y4K3
T2 chain: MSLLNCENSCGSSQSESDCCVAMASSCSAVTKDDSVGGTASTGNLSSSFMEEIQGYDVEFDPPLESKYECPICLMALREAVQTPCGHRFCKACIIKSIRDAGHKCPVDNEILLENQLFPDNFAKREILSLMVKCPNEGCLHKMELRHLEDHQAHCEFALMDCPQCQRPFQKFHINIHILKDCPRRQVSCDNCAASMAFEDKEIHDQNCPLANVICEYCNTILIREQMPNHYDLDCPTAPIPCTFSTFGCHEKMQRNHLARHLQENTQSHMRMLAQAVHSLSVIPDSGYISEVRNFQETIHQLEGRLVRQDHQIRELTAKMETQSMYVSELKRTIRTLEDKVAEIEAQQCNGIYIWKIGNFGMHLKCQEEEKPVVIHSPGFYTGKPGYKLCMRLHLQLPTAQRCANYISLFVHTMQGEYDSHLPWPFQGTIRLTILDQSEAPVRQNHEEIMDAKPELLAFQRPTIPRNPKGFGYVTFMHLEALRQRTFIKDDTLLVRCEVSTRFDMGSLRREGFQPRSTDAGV

COc1cc(O)c2c(c1)oc(=O)c1c3cc(O)c(O)cc3oc21 [Wedelolactone]
survival rate (Cyld−/− mice): did not greatly alter the survival rate

MALP-2
CYLD expression (CYLD): up-regulated

Pam3CSK4
CYLD expression (CYLD): up-regulated

peptidoglycan
CYLD expression (CYLD): up-regulated

B1: rPAI-1: mouse recombinant plasminogen activator inhibitor-1, purchased from Calbiochem; Example 20 uses recombinant stable wild-type PAI-1 (protein, UniProt P22777 23-402, looked up)
Plasminogen activator …: TLPLRESHTAHQATDFGVKVFQQVVQASKDRNVVFSPYGVSSVLAMLQMTTAGKTRRQIQDAMGFKVNEKGTAHALRQLSKELMGPWNKNEISTADAIFVQRDLELVQGFMPHFFKLFQTMVKQVDFSEVERARFIINDWVERHTKGMINDLLAKGAVDELTRLVLVNALYFSGQWKTPFLEASTHQRLFHKSDGSTVSVPMMAQSNKFNYTEFTTPDGLEYDVVELPYQRDTLSMFIAAPFEKDVHLSALTNILDAELIRQWKGNMTRLPRLLILPKFSLETEVDLRGPLEKLGMPDMFSATLADFTSLSDQEQLSVAQALQKVRIEVNESGTVASSSTAFVISARMAPTEMVIDRSFLFVVRHNPTETILFMGQVMEP
PLY-induced alveolar hemorrhage (wild type mice [1]): prevented
S. pneumoniae-induced alveolar (lung) hemorrhage (wild type mice [1]): prevented
protection from lethal PLY challenge (viability) (Tlr4−/− mice): fully protected mice from lethal challenge
mortality rate / lethality in mice inoculated with S. pneumoniae (wild type mice [2]): greatly reduced the mortality rate
mortality rate / lethality in mice inoculated with S. pneumoniae (wild type mice [2]; listed as recombinant PAI-1): protected mice from S.p.-induced lethality
mortality rate in mice inoculated with PLY (wild type mice [2]; rPAI-1 12.5 μg/mouse intratracheally 1 day before pneumolysin): greatly reduced the mortality rate
distribution of intratracheally inoculated rPAI-1 in the lungs [3]: widely distributed in the lungs

B2: deubiquitinating enzyme CYLD (protein)
chain: MSSGLWSQEKVTSPYWEERIFYLLLQECSVTDKQTQKLLKVPKGSIGQYIQDRSVGHSRIPSAKGKKNQIGLKILEQPHAVLFVDEKDVVEINEKFTELLLAITNCEERFSLFKNRNRLSKGLQIDVGCPVKVQLRSGEEKFPGVVRFRGPLLAERTVSGIFFGVELLEEGRGQGFTDGVYQGKQLFQCDEDCGVFVALDKLELIEDDDTALESDYAGPGDTMQVELPPLEINSRVSLKVGETIESGTVIFCDVLPGKESLGYFVGVDMDNPIGNWDGRFDGVQLCSFACVESTILLHINDIIPALSESVTQERRPPKLAFMSRGVGDKGSSSHNKPKATGSTSDPGNRNRSELFYTLNGSSVDSQPQSKSKNTWYIDEVAEDPAKSLTEISTDFDRSSPPLQPPPVNSLTTENRFHSLPFSLTKMPNTNGSIGHSPLSLSAQSVMEELNTAPVQESPPLAMPPGNSHGLEVGSLAEVKENPPFYGVIRWIGQPPGLNEVLAGLELEDECAGCTDGTFRGTRYFTCALKKALFVKLKSCRPDSRFASLQPVSNQIERCNSLAFGGYLSEVVEENTPPKMEKEGLEIMIGKKKGIQGHYNSCYLDSTLFCLFAFSSVLDTVLLRPKEKNDVEYYSETQELLRTEIVNPLRIYGYVCATKIMKLRKILEKVEAASGFTSEEKDPEEFLNILFHHILRVEPLLKIRSAGQKVQDCYFYQIFMEKNEKVGVPTIQQLLEWSFINSNLKFAEAPSCLIIQMPRFGKDFKLFKKIFPSLELNITDLLEDTPRQCRICGGLAMYECRECYDDPDISAGKIKQFCKTCNTQVHLHPKRLNHKYNPVSLPKDLPDWDWRHGCIPCQNMELFAVLCIETSHYVAFVKYGKDDSAWLFFDSMADRDGGQNGFNIPQVTPCPEVGEYLKMSLEDLHSLDSRRIQGCARRLLCDAYMCMYQSPTMSLYK
NTHi-induced inflammatory response (TRAF7, Q6Q0C0): CYLD inhibition of this inflammatory response was achieved via deubiquitinating TRAF6 and TRAF7
ubiquitination of TRAF7 (TRAF7, Q6Q0C0): Overexpression of WT CYLD reduced, whereas siRNA knock-down of CYLD enhanced, the ubiquitination of TRAF6 and TRAF7
NTHi-induced inflammatory response [4]: CYLD inhibition of this inflammatory response was achieved via deubiquitinating TRAF6 and TRAF7
ubiquitination of TRAF6 [4]: Overexpression of WT CYLD reduced, whereas siRNA knock-down of CYLD enhanced, the ubiquitination of TRAF6 and TRAF7
